Measurements taken from paper doi:10.1101/2025.04.18.649599.

Tests used:
Test in all cases: photon counting histogram
[1] = molecular target: HaloTag-AtCRY2 (photolyase homology region of cryptochrome 2 from A. thaliana) (A. thaliana)
[2] = molecular target: HaloTag-AtCRY2(W374A) (A. thaliana)
[3] = molecular target: HaloTag-HsCRY2 (human CRY2 photolyase homology region) (human)
[4] = molecular target: HaloTag-VfAuLOV (light-oxygen-voltage (LOV) domain of V. frigida Aurochrome1) (V. frigida)
[5] = molecular target: HaloTag-bZip-VfAuLOV (V. frigida)

Substance “HaloTag-AtCRY2 (photolyase homology region of cryptochrome 2 from A. thaliana) (domain or fragment)” has a relative brightness (relative to the monomeric standard) [1] of 2 to 4, a relative brightness at 750 nM (relative to the monomeric standard) [1] of 3 and a stoichiometry N [1] of 4.
Substance “HaloTag-AtCRY2(W374A) (domain or fragment)” has a relative brightness (relative to the monomeric standard) [2] of 1.5.
“HaloTag-HsCRY2 (human CRY2 photolyase homology region) (domain or fragment)” gave a relative brightness at about 750 nM (relative to the monomeric standard) [3] of 1.6.
In the case of “HaloTag-VfAuLOV (light-oxygen-voltage (LOV) domain of V. frigida Aurochrome1) (domain or fragment)”, the stoichiometry N [4] is reported as 2.
For “HaloTag-bZip-VfAuLOV (domain or fragment)”, the stoichiometry N [5] was 2.
